# Key:
# Experiment in all cases: native gel or EMSA; blue native-PAGE (BN-PAGE) of membrane proteins extracted from whole-cell lysates of transfected HEK 293 cells, 10 mM n-dodecyl-β-maltoside, 4 to 16% (or 3 to 12%) Bis/Tris gels, Western blot with anti-GluA1 or anti-GluA2; AMPAR subunit expressed alone or with an auxiliary subunit (cDNA 1:1); oligomeric states (tetramer, dimer, monomer) by molecular mass; tetramer fraction from band intensities; association of an auxiliary subunit read from the upshift of the tetramer band
# [1] = biological target: GluA1 (rat, flip splice variant), wild type (rat (Rattus norvegicus))
# [2] = biological target: GluA1(G816A) (rat (Rattus norvegicus))
# [3] = biological target: GluA1(G816A)-TARP γ-2 tandem (rat (Rattus norvegicus) | rat)
# [4] = biological target: GluA1-TARP γ-2 tandem (rat (Rattus norvegicus) | rat)
# [5] = biological target: GluA1-ΔECD (GluA1 lacking the extracellular ATD and LBD) (rat (Rattus norvegicus))
# [6] = biological target: GluA2(R) (rat, flip splice variant, edited (R) form) (rat (Rattus norvegicus))
# [7] = biological target: GluA2(R)(G823A) (rat (Rattus norvegicus))
substance,measurement,setting,value
"GluA1 (rat, flip splice variant), wild type (receptor)",stoichiometry N,[1],4
same,tetramer fraction,[1],0.84
GluA1(G816A) (receptor),tetramer fraction,[2],0.52
GluA1(G816A)-TARP γ-2 tandem,stoichiometry N,[3],4
GluA1-TARP γ-2 tandem,stoichiometry N,[4],4
GluA1-ΔECD (GluA1 lacking the extracellular ATD and LBD) (domain or fragment),stoichiometry N,[5],4
"GluA2(R) (rat, flip splice variant, edited (R) form) (receptor)",stoichiometry N,[6],4
same,tetramer fraction,[6],0.89
GluA2(R)(G823A) (receptor),tetramer fraction,[7],0.45
